Experimental data taken from the RNAGym collection of RNA variant scans (doi:10.1093/molbev/msab373).

B1: Azoarcus group I ribozyme (parent)
chain: GUGCCUUGCGCCGGGAAACCACGCAAGGGAUGGUGUCAAAUUCGGCGAAACCUAAGCGCCCGCCCGGGCGUAUGGCAACGCCGAGCCAAGCUUCGGCGCCUGCGCCGAUGAAGGUGUAGAGACUAGACGGCACCCACCUAAGGCAAACGCUAUGGUGAAGGCAUAGUCCAGGGAGUGGCGAAAGUCACACAAACCGG

Variants of: B1
Test: reverse-splicing fitness (ratio to wild type); higher = more active; in vitro selection; Mg2+ level not given
Summary of the method: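 An in vitro group I ribozyme library with randomized positions was T7-transcribed and gel-purified. In triplicate, 10 pmol RNA in EPPS pH 7.5 was reacted with 50 pmoles of a 30-nt RNA substrate for 1 h at 37 °C across several added MgCl2 levels (1–48 mM), then stopped with EDTA. Products were reverse transcribed from a substrate-complementary primer, PCR-amplified and sequenced (HiSeq 4000). Fitness is a variant's read proportion after selection over that before, normalised to wild type.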

Variant | reverse-splicing fitness
GUGCCUUGCGCCGGGAAACCACGCAAGGGAUGGUGUCAAAUUCGGCGAAACCUAAGCGCCCGCCCGGGCGUAUGGCAACGCGGAGCCAAGCUUCGGCGCCUGCGCCGAUGUAGGUGUAGUGACUAGACGGCACCCACCUAAGGCGAACGUUAUGGUGAAGGCAUAGUCCAGGGAGGGGCGAAAGUCACACAAACCGG | 0.00433
GUGCCUUGCGCCGGGAAACCACGCAAGGGAUGGUGUCAAAUUCGGCGAAACCUAAGCGCCCGCCCGGGCGUAUGGCAACGCGGAGCCAAGCUUCGGCGCCUGCGCCGAUGUAGGUGUAGUGACUAGACGGCACCCACCUAAGGCGAACGUUAUGGUGAAGGCAUAGUCCAGGGAGAGGCGAAAGUCACACAAACCGG | 0.0103
GUGCCUUGCGCCGGGAAACCACGCAAGGGAUGGUGUCAAAUUCGGCGAAACCUAAGCGCCCGCCCGGGCGUAUGGCAACGCGGAGCCAAGCUUCGGCGCCUGCGCCGAUGUAGGUGUAGUGACUAGACGGCACCCACCUAAGGCGAACGUUAUGGUGAAGGCAUAGUCCAGGGAGCGGCGAAAGUCACACAAACCGG | 0.0151
GUGCCUUGCGCCGGGAAACCACGCAAGGGAUGGUGUCAAAUUCGGCGAAACCUAAGCGCCCGCCCGGGCGUAUGGCAACGCGGAGCCAAGCUUCGGCGCCUGCGCCGAUGUAGGUGUAGUGACUAGACGGCACCCACCUAAGGCGAACGUUAUGGUGAAGGCAUAGUCAAGGGAGGGGCGAAAGUCACACAAACCGG | 0.00276
GUGCCUUGCGCCGGGAAACCACGCAAGGGAUGGUGUCAAAUUCGGCGAAACCUAAGCGCCCGCCCGGGCGUAUGGCAACGCGGAGCCAAGCUUCGGCGCCUGCGCCGAUGUAGGUGUAGUGACUAGACGGCACCCACCUAAGGCGAACGUUAUGGUGAAGGCAUAGUCAAGGGAGAGGCGAAAGUCACACAAACCGG | 0.0082
GUGCCUUGCGCCGGGAAACCACGCAAGGGAUGGUGUCAAAUUCGGCGAAACCUAAGCGCCCGCCCGGGCGUAUGGCAACGCGGAGCCAAGCUUCGGCGCCUGCGCCGAUGUAGGUGUAGUGACUAGACGGCACCCACCUAAGGCGAACGUUAUGGUGAAGGCAUAGUCAAGGGAGCGGCGAAAGUCACACAAACCGG | 0.00451
GUGCCUUGCGCCGGGAAACCACGCAAGGGAUGGUGUCAAAUUCGGCGAAACCUAAGCGCCCGCCCGGGCGUAUGGCAACGCGGAGCCAAGCUUCGGCGCCUGCGCCGAUGUAGGUGUAGUGACUAGACGGCACCCACCUAAGGCGAACGGUAUGGUGAAGGCAUAGUCCAGGGAGAGGCGAAAGUCACACAAACCGG | 0.00648
GUGCCUUGCGCCGGGAAACCACGCAAGGGAUGGUGUCAAAUUCGGCGAAACCUAAGCGCCCGCCCGGGCGUAUGGCAACGCGGAGCCAAGCUUCGGCGCCUGCGCCGAUGUAGGUGUAGUGACUAGACGGCACCCACCUAAGGCGAACGGUAUGGUGAAGGCAUAGUCCAGGGAGCGGCGAAAGUCACACAAACCGG | 0.00861
GUGCCUUGCGCCGGGAAACCACGCAAGGGAUGGUGUCAAAUUCGGCGAAACCUAAGCGCCCGCCCGGGCGUAUGGCAACGCGGAGCCAAGCUUCGGCGCCUGCGCCGAUGUAGGUGUAGUGACUAGACGGCACCCACCUAAGGCGAACGGUAUGGUGAAGGCAUAGUCCAGGGAGGGGCGAAAGUCACACAAACCGG | 0.00462
GUGCCUUGCGCCGGGAAACCACGCAAGGGAUGGUGUCAAAUUCGGCGAAACCUAAGCGCCCGCCCGGGCGUAUGGCAACGCGGAGCCAAGCUUCGGCGCCUGCGCCGAUGUAGGUGUAGUGACUAGACGGCACCCACCUAAGGCGAACGUUAUGGUGAAGGCAUAGUCCAGGGAGUGGCGAAAGUCACACAAACCGG | 0.0351
GUGCCUUGCGCCGGGAAACCACGCAAGGGAUGGUGUCAAAUUCGGCGAAACCUAAGCGCCCGCCCGGGCGUAUGGCAACGCGGAGCCAAGCUUCGGCGCCUGCGCCGAUGUAGGUGUAGUGACUAGACGGCACCCACCUAAGGCGAACGGUAUGGUGAAGGCAUAGUCUAGGGAGCGGCGAAAGUCACACAAACCGG | 0.00721
GUGCCUUGCGCCGGGAAACCACGCAAGGGAUGGUGUCAAAUUCGGCGAAACCUAAGCGCCCGCCCGGGCGUAUGGCAACGCGGAGCCAAGCUUCGGCGCCUGCGCCGAUGUAGGUGUAGUGACUAGACGGCACCCACCUAAGGCGAACGGUAUGGUGAAGGCAUAGUCUAGGGAGGGGCGAAAGUCACACAAACCGG | 0.00391
GUGCCUUGCGCCGGGAAACCACGCAAGGGAUGGUGUCAAAUUCGGCGAAACCUAAGCGCCCGCCCGGGCGUAUGGCAACGCGGAGCCAAGCUUCGGCGCCUGCGCCGAUGUAGGUGUAGUGACUAGACGGCACCCACCUAAGGCGAACGUUAUGGUGAAGGCAUAGUCGAGGGAGCGGCGAAAGUCACACAAACCGG | 0.00575
GUGCCUUGCGCCGGGAAACCACGCAAGGGAUGGUGUCAAAUUCGGCGAAACCUAAGCGCCCGCCCGGGCGUAUGGCAACGCGGAGCCAAGCUUCGGCGCCUGCGCCGAUGUAGGUGUAGUGACUAGACGGCACCCACCUAAGGCGAACGUUAUGGUGAAGGCAUAGUCGAGGGAGGGGCGAAAGUCACACAAACCGG | 0.00266
GUGCCUUGCGCCGGGAAACCACGCAAGGGAUGGUGUCAAAUUCGGCGAAACCUAAGCGCCCGCCCGGGCGUAUGGCAACGCGGAGCCAAGCUUCGGCGCCUGCGCCGAUGUAGGUGUAGUGACUAGACGGCACCCACCUAAGGCGAACGUUAUGGUGAAGGCAUAGUCGAGGGAGAGGCGAAAGUCACACAAACCGG | 0.00833
